According to PMC8254039, “Oxalate decarboxylase uses electron hole hopping for catalysis” (The Journal of Biological Chemistry, 2021):

Experiments:
[1] = target: the molecule itself; test: native gel or EMSA; native PAGE of the mutant proteins after purification, compared with WT (Fig. S3); self-assembly of the subunits
purified protein = substrate: O=C(O)C(=O)O; test: purified protein; conditions: pH 4.2, 25 °C
[2] = 50 mM poly buffer, 500 mM NaCl, Triton X-100, o-phenylenediamine, 1.93 Mn per subunit
[3] = same buffer, 0.55 Mn per subunit
[4] = same buffer, 0.33 Mn per subunit
[5] = same buffer, 1.89 Mn per subunit
[6] = same buffer, 0.58 Mn per subunit
[7] = same buffer, 1.34 Mn per subunit

B1: oxalate decarboxylase (OxDC) of Bacillus subtilis, wild type, His6-tagged (enzyme)
chain: MKKQNDIPQPIRGDKGATVKIPRNIERDRQNPDMLVPPETDHGTVSNMKFSFSDTHNRLEKGGYAREVTVRELPISENLASVNMRLKPGAIRELHWHKEAEWAYMIYGSARVTIVDEKGRSFIDDVGEGDLWYFPSGLPHSIQALEEGAEFLLVFDDGSFSENSTFQLTDWLAHTPKEVIAANFGVTKEEISNLPGKEKYIFENQLPGSLKDDIVEGPNGEVPYPFTYRLLEQEPIESEGGKVYIADSTNFKVSKTIASALVTVEPGAMRELHWHPNTHEWQYYISGKARMTVFASDGHARTFNYQAGDVGYVPFAMGHYVENIGDEPLVFLEIFKDDHYADVSLNQWLAMLPETFVQAHLDLGKDFTDVLSKEKHPVVKKKCSK
notes: oxalate decarboxylase (OxDC), Bacillus subtilis, YvrK gene; Vector printed as PET32A with the YvrK gene; also called WT OxDC; WT; source: E. coli (overexpressed), purified (nickel-NTA, HiTrap Q anion exchange, Superdex 200 gel filtration)
[1]
  binding result: binds
Purified protein; [2]
  Km: 33.3 ± 0.4 mM
  kcat: 89.2 ± 1.4 s⁻¹

B2: oxalate decarboxylase (OxDC) of Bacillus subtilis, W96F mutant, His6-tagged (enzyme)
chain: MKKQNDIPQPIRGDKGATVKIPRNIERDRQNPDMLVPPETDHGTVSNMKFSFSDTHNRLEKGGYAREVTVRELPISENLASVNMRLKPGAIRELHFHKEAEWAYMIYGSARVTIVDEKGRSFIDDVGEGDLWYFPSGLPHSIQALEEGAEFLLVFDDGSFSENSTFQLTDWLAHTPKEVIAANFGVTKEEISNLPGKEKYIFENQLPGSLKDDIVEGPNGEVPYPFTYRLLEQEPIESEGGKVYIADSTNFKVSKTIASALVTVEPGAMRELHWHPNTHEWQYYISGKARMTVFASDGHARTFNYQAGDVGYVPFAMGHYVENIGDEPLVFLEIFKDDHYADVSLNQWLAMLPETFVQAHLDLGKDFTDVLSKEKHPVVKKKCSK
notes: oxalate decarboxylase (OxDC), Bacillus subtilis, YvrK gene, with W96F; 385 residues per subunit; Quaternary assembly in the crystal agrees with that of the hexameric wild type (5VG3); source: E. coli (overexpressed), purified (nickel-NTA, HiTrap Q anion exchange, Superdex 200 gel filtration)
[1]
  binding result: binds
Purified protein; [3]
  Km: 16.0 ± 1.5 mM
  kcat: 1.00 ± 0.03 s⁻¹

B3: oxalate decarboxylase (OxDC) (Bacillus subtilis subsp. subtilis str. 168; W274Y/W96Y) (protein)
chain: MKKQNDIPQPIRGDKGATVKIPRNIERDRQNPDMLVPPETDHGTVSNMKFSFSDTHNRLEKGGYAREVTVRELPISENLASVNMRLKPGAIRELHYHKEAEWAYMIYGSARVTIVDEKGRSFIDDVGEGDLWYFPSGLPHSIQALEEGAEFLLVFDDGSFSENSTFQLTDWLAHTPKEVIAANFGVTKEEISNLPGKEKYIFENQLPGSLKDDIVEGPNGEVPYPFTYRLLEQEPIESEGGKVYIADSTNFKVSKTIASALVTVEPGAMRELHYHPNTHEWQYYISGKARMTVFASDGHARTFNYQAGDVGYVPFAMGHYVENIGDEPLVFLEIFKDDHYADVSLNQWLAMLPETFVQAHLDLGKDFTDVLSKEKHPVVKKKCSK
Purified protein; [4]
  Km: 5.6 ± 0.5 mM
  kcat: 0.20 ± 0.01 s⁻¹

B4: oxalate decarboxylase (OxDC) of Bacillus subtilis, W96Y/W274Y double mutant, His6-tagged (enzyme)
chain: MKKQNDIPQPIRGDKGATVKIPRNIERDRQNPDMLVPPETDHGTVSNMKFSFSDTHNRLEKGGYAREVTVRELPISENLASVNMRLKPGAIRELHYHKEAEWAYMIYGSARVTIVDEKGRSFIDDVGEGDLWYFPSGLPHSIQALEEGAEFLLVFDDGSFSENSTFQLTDWLAHTPKEVIAANFGVTKEEISNLPGKEKYIFENQLPGSLKDDIVEGPNGEVPYPFTYRLLEQEPIESEGGKVYIADSTNFKVSKTIASALVTVEPGAMRELHYHPNTHEWQYYISGKARMTVFASDGHARTFNYQAGDVGYVPFAMGHYVENIGDEPLVFLEIFKDDHYADVSLNQWLAMLPETFVQAHLDLGKDFTDVLSKEKHPVVKKKCSK
notes: oxalate decarboxylase (OxDC), Bacillus subtilis, YvrK gene, with W96Y and W274Y; 385 residues per subunit; Said to assemble like the wild type on native PAGE; no crystal structure; source: E. coli (overexpressed), purified (nickel-NTA, HiTrap Q anion exchange, Superdex 200 gel filtration)
[1]
  binding result: binds

B5: oxalate decarboxylase (OxDC) of Bacillus subtilis, W96F/W274F double mutant, His6-tagged (enzyme)
chain: MKKQNDIPQPIRGDKGATVKIPRNIERDRQNPDMLVPPETDHGTVSNMKFSFSDTHNRLEKGGYAREVTVRELPISENLASVNMRLKPGAIRELHFHKEAEWAYMIYGSARVTIVDEKGRSFIDDVGEGDLWYFPSGLPHSIQALEEGAEFLLVFDDGSFSENSTFQLTDWLAHTPKEVIAANFGVTKEEISNLPGKEKYIFENQLPGSLKDDIVEGPNGEVPYPFTYRLLEQEPIESEGGKVYIADSTNFKVSKTIASALVTVEPGAMRELHFHPNTHEWQYYISGKARMTVFASDGHARTFNYQAGDVGYVPFAMGHYVENIGDEPLVFLEIFKDDHYADVSLNQWLAMLPETFVQAHLDLGKDFTDVLSKEKHPVVKKKCSK
notes: oxalate decarboxylase (OxDC), Bacillus subtilis, YvrK gene, with W96F and W274F; 385 residues per subunit; Said to assemble like the wild type on native PAGE; no crystal structure; source: E. coli (overexpressed), purified (nickel-NTA, HiTrap Q anion exchange, Superdex 200 gel filtration)
[1]
  binding result: binds

B6: oxalate decarboxylase (OxDC) of Bacillus subtilis, W274Y mutant, His6-tagged (enzyme)
chain: MKKQNDIPQPIRGDKGATVKIPRNIERDRQNPDMLVPPETDHGTVSNMKFSFSDTHNRLEKGGYAREVTVRELPISENLASVNMRLKPGAIRELHWHKEAEWAYMIYGSARVTIVDEKGRSFIDDVGEGDLWYFPSGLPHSIQALEEGAEFLLVFDDGSFSENSTFQLTDWLAHTPKEVIAANFGVTKEEISNLPGKEKYIFENQLPGSLKDDIVEGPNGEVPYPFTYRLLEQEPIESEGGKVYIADSTNFKVSKTIASALVTVEPGAMRELHYHPNTHEWQYYISGKARMTVFASDGHARTFNYQAGDVGYVPFAMGHYVENIGDEPLVFLEIFKDDHYADVSLNQWLAMLPETFVQAHLDLGKDFTDVLSKEKHPVVKKKCSK
notes: oxalate decarboxylase (OxDC), Bacillus subtilis, YvrK gene, with W274Y; 385 residues per subunit; Said to assemble like the wild type on native PAGE; no crystal structure; source: E. coli (overexpressed), purified (nickel-NTA, HiTrap Q anion exchange, Superdex 200 gel filtration)
[1]
  binding result: binds

B7: oxalate decarboxylase (OxDC) (Bacillus subtilis subsp. subtilis str. 168; W274Y) (protein)
chain: MKKQNDIPQPIRGDKGATVKIPRNIERDRQNPDMLVPPETDHGTVSNMKFSFSDTHNRLEKGGYAREVTVRELPISENLASVNMRLKPGAIRELHWHKEAEWAYMIYGSARVTIVDEKGRSFIDDVGEGDLWYFPSGLPHSIQALEEGAEFLLVFDDGSFSENSTFQLTDWLAHTPKEVIAANFGVTKEEISNLPGKEKYIFENQLPGSLKDDIVEGPNGEVPYPFTYRLLEQEPIESEGGKVYIADSTNFKVSKTIASALVTVEPGAMRELHYHPNTHEWQYYISGKARMTVFASDGHARTFNYQAGDVGYVPFAMGHYVENIGDEPLVFLEIFKDDHYADVSLNQWLAMLPETFVQAHLDLGKDFTDVLSKEKHPVVKKKCSK
Purified protein; [5]
  Km: 10.3 ± 3.1 mM
  kcat: 23.9 ± 2.8 s⁻¹

B8: oxalate decarboxylase (OxDC) of Bacillus subtilis, W274F mutant, His6-tagged (enzyme)
chain: MKKQNDIPQPIRGDKGATVKIPRNIERDRQNPDMLVPPETDHGTVSNMKFSFSDTHNRLEKGGYAREVTVRELPISENLASVNMRLKPGAIRELHWHKEAEWAYMIYGSARVTIVDEKGRSFIDDVGEGDLWYFPSGLPHSIQALEEGAEFLLVFDDGSFSENSTFQLTDWLAHTPKEVIAANFGVTKEEISNLPGKEKYIFENQLPGSLKDDIVEGPNGEVPYPFTYRLLEQEPIESEGGKVYIADSTNFKVSKTIASALVTVEPGAMRELHFHPNTHEWQYYISGKARMTVFASDGHARTFNYQAGDVGYVPFAMGHYVENIGDEPLVFLEIFKDDHYADVSLNQWLAMLPETFVQAHLDLGKDFTDVLSKEKHPVVKKKCSK
notes: oxalate decarboxylase (OxDC), Bacillus subtilis, YvrK gene, with W274F; 385 residues per subunit; Said to assemble like the wild type on native PAGE; no crystal structure; source: E. coli (overexpressed), purified (nickel-NTA, HiTrap Q anion exchange, Superdex 200 gel filtration)
[1]
  binding result: binds
Purified protein; [6]
  Km: 6.7 ± 0.3 mM
  kcat: 1.10 ± 0.03 s⁻¹

B9: oxalate decarboxylase (OxDC) (Bacillus subtilis subsp. subtilis str. 168; W96Y) (protein)
chain: MKKQNDIPQPIRGDKGATVKIPRNIERDRQNPDMLVPPETDHGTVSNMKFSFSDTHNRLEKGGYAREVTVRELPISENLASVNMRLKPGAIRELHYHKEAEWAYMIYGSARVTIVDEKGRSFIDDVGEGDLWYFPSGLPHSIQALEEGAEFLLVFDDGSFSENSTFQLTDWLAHTPKEVIAANFGVTKEEISNLPGKEKYIFENQLPGSLKDDIVEGPNGEVPYPFTYRLLEQEPIESEGGKVYIADSTNFKVSKTIASALVTVEPGAMRELHWHPNTHEWQYYISGKARMTVFASDGHARTFNYQAGDVGYVPFAMGHYVENIGDEPLVFLEIFKDDHYADVSLNQWLAMLPETFVQAHLDLGKDFTDVLSKEKHPVVKKKCSK
Purified protein; [7]
  Km: 3.7 ± 0.9 mM
  kcat: 5.3 ± 0.9 s⁻¹

B10: oxalate decarboxylase (OxDC) of Bacillus subtilis, W96Y mutant, His6-tagged (enzyme)
chain: MKKQNDIPQPIRGDKGATVKIPRNIERDRQNPDMLVPPETDHGTVSNMKFSFSDTHNRLEKGGYAREVTVRELPISENLASVNMRLKPGAIRELHYHKEAEWAYMIYGSARVTIVDEKGRSFIDDVGEGDLWYFPSGLPHSIQALEEGAEFLLVFDDGSFSENSTFQLTDWLAHTPKEVIAANFGVTKEEISNLPGKEKYIFENQLPGSLKDDIVEGPNGEVPYPFTYRLLEQEPIESEGGKVYIADSTNFKVSKTIASALVTVEPGAMRELHWHPNTHEWQYYISGKARMTVFASDGHARTFNYQAGDVGYVPFAMGHYVENIGDEPLVFLEIFKDDHYADVSLNQWLAMLPETFVQAHLDLGKDFTDVLSKEKHPVVKKKCSK
notes: oxalate decarboxylase (OxDC), Bacillus subtilis, YvrK gene, with W96Y; 385 residues per subunit; Quaternary assembly in the crystal agrees with that of the hexameric wild type (5VG3); source: E. coli (overexpressed), purified (nickel-NTA, HiTrap Q anion exchange, Superdex 200 gel filtration)
[1]
  binding result: binds
